# Experimental data from PMC4005879 (Bioorganic & medicinal chemistry letters, 2014).
# Like-named read-outs stand apart in the source and are kept apart here.
# What was measured:
# [1] = target: capsid assembly inhibitor (CAI) peptide; assay: ITC
# [2] = target: HIV capsid protein p24 CTD (Human immunodeficiency virus 1) (UniProt O93182); settings: cited from earlier work
# HIV-1 [3] = settings: read-out: TZM-b1 cells IC50; single-cycle assay, TZM-bl cells; ref [8]; cited from earlier work
# HIV-1 [4] = settings: read-out: MT-2 cells IC50, multi-cycle infection assay, ref [8]; cited from earlier work
substance,measurement,setting,value
"C-terminal domain (CTD) of the HIV capsid protein p24, M184A/W185A (domain or fragment)",Kd,[1],8.3 µM
same,dH,[1],-9.45 kcal/mol
same,stoichiometry N,[1],0.98
CAI,Kd,[2],15 µM
ISFR8ELLDYYS5ESGS (sidechain bridge or staple) [NYAD-36],IC50,HIV-1 [3],2 ± 0.4 µM
same,IC50,HIV-1 [4],1.5 ± 0.17 µM
